Data set [1] concerns the molecule itself. Kind of data set: NMR structure; PACT D3 in 20 mM HEPES pH 7.5, 50 mM KCl, 2 mM DTT, 30 °C; inter-chain NOEs from a mixed-isotope sample (0.4 mM each protomer).
The target in data set [2] is T1, PKR K296R (UniProt P19525 1-551, K296R). Kind of data set: SEC-MALS; 3 PKR per dsRNA; EMSA: 20 mM HEPES pH 7.5, 150 mM NaCl, 2 mM DTT, RT 15 min, 0.2 ng/ul 32P-112 bp dsRNA, 0-4000 nM protein, Bis-Tris native PAGE; smFRET buffer not in material. Conditions: protein: recombinant; tags: pET29b; Cy5-labeled in smFRET; blunt. On the technique in general: Size exclusion chromatography separates by hydrodynamic size, large species first.
T1 sequence (P19525 whole entry K296R): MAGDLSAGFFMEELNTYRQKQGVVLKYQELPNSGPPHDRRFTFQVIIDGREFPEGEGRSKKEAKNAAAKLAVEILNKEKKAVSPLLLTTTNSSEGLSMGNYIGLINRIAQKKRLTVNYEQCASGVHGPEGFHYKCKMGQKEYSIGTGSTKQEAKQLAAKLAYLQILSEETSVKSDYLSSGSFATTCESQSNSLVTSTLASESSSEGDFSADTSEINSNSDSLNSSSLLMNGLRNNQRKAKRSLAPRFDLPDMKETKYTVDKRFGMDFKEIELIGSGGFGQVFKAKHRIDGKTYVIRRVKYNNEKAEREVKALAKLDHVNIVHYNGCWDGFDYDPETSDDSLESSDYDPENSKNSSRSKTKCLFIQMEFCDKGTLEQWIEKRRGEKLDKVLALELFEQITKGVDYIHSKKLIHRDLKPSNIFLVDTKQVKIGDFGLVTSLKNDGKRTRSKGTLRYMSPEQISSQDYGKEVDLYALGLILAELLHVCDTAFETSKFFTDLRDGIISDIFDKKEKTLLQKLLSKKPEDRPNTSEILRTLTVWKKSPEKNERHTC

In data set [3] the target is T1, PKR K296R. Kind of data set: SEC-MALS; 4 PKR per dsRNA; EMSA: 20 mM HEPES pH 7.5, 150 mM NaCl, 2 mM DTT, RT 15 min, 0.2 ng/ul 32P-112 bp dsRNA, 0-4000 nM protein, Bis-Tris native PAGE; smFRET buffer not in material. Conditions: protein: recombinant; tags: pET29b; Cy5-labeled in smFRET; blunt.

B1: PACT DRBD3 (residues 235-313) (domain or fragment, UniProt O75569 235-313, looked up)
chain: SIPNTDYIQLLSEIAKEQGFNITYLDIDELSANGQYQCLAELSTSPITVCHGSGISCGNAQSDAAHNALQYLKIIAERK
modifications: isotope-labelled (15N, 13C, ~85% 2H; for the mixed sample 15N,2H-labelled and 13C-labelled protomers)
notes: PACT DRBD3, residues 235-313, in pET47b between BamHI and SalI; Homodimer in the NMR structure; also called PACT D3; source: E. coli BL21(DE3) in M9 minimal media, purified (Ni-NTA, SEC)
What is called stoichiometry N is a count of units in the complex or per binding partner. Turning to B1, in data set [1], the “stoichiometry N” value stood at 2.

B2: 42 bp dsRNA (dsRNA)
RNA 1: GGGAGAAUGUCGAAUGGGUAUUCCACAGACGAGAAUUCUCCC
RNA 2: GGGAGAAUUCUCGUCUGUGGAAUACCCAUUCGACAUUCUCCC
Take B2: in the data set with PKR K296R [2], the binding result is recorded as “binds”.

B3: 62 bp dsRNA (dsRNA)
RNA 1: GGGAGAAUGUCGAAUGGGUAUUCCACAGACGAGAAUUUCCGCUAUCUCAUCUCGUGUCUCCC
RNA 2: GGGAGACACGAGAUGAGAUAGCGGAAAUUCUCGUCUGUGGAAUACCCAUUCGACAUUCUCCC
On to B3, for which the binding result in the data set with PKR K296R [3] was “binds”.

The values above are taken from PMC11978871, “PACT prevents aberrant activation of PKR by endogenous dsRNA without sequestration” (Nature Communications, 2024).
